The values below come from the DeepSol protein solubility set.

The nature of the data set: soluble on expression in E. coli; label from the status in PepcDB or PDB records.
For the sequence “SLSARSSHLSQPVVKSVLVYRNGDPFYAGRRVVIHEKKVSSFEVFLKEVTGGVQAPFGAVRNIYTPRTGHRIRKLDQIQSGGNYVAGGQEAFKKLNYLDIGEIKKRPMEVVNT”, the “soluble on expression in E. coli” value is recorded as “soluble”. To “SLSGGKYVDSEGHLYTVPIREQGNIYKPNNKAMADELSEKQVYDAHTKEIDLVNRDPKHLNDDVVKIDFEDVIAEPEGTHSFDGIWKASFTTFTVTKYWFYREG” belongs “not soluble”; to “SLSKLMLRHKAKKIDHVAIAVLDLEQAIGYFSMMGFTLSDRMTTTGAHSAMHSAVMEAGPIKFVLLEGANETSQITRFINEYGPGPQHIAIEVENVESLCKELEKQGLDFSTKTIKGPELIQRFTVRCPNSGVMIEFIERNEEEGFSEQNVEDLFRQLEASDAYEG”, “soluble”; to “SLSTKNHFIFPTYVQMYPYSKDRPFLKQVREKLRYYGYKWLYQKQCSQLVDFLNTETQWQSLFTQDYYRTNTILTTFCDKRFSASERLTAITENLRLAEEKMGRSLCQQLLDQQHIVLTQLTEDLRLSLSINHIDPFEGYFSINIRNQNNERVYDSSFTFLSPNKLLIASIQGPSSDNAQELVKQATKALHGMRPMFMLVNGFKMLAEKWQCELVGIPHKAQGKYRLSARSKILFNYDEFWQENQGEYRHNYWQLPLHIERKQLEDIASKKRSMYRKRYEMLDQMALDIQQL”, “not soluble”. In the case of “SLTGAVDKLTLIHYNDVYNIDANSKSEPIGGAARFCTAVRSFSHLNPLVLFSGDAFSPSMLSTFTKGEQMIPVLNTVGTHCAVFGNHDFDHGLDILNEWVEKTNFPWLMSNVVDNETGRPLGGGKITHIMHHNEVKVGLIGLVEKEWLDTLPTIDPNEVTYIDFIKAGNQLADELHNQGCDIIIALTHMRTPNDIELAKHSGHIDLILGGHDHVYEILNIDDTHVIKSGTDFRQFSKIGISLNRNQNGKININVEKVDVNSTKYSEDSELKNELKKYSETIESKMDEVLGTFAVELDGRFSAIRTSETNLGNWICDVALAATGADCVIINSGTFRSDQIHPAGPFTMRDLINIIPMQDPLIVLEVTGKILHQALENSVSTYPKLEGRFPQIAGMSFVFDPTKKAGERVEPKLIRLGDEWLNLEQTYTLCVKSYIYGGCDGYNMFKECRVLMDDDAAPELGLAIQNHFKAIDVRLGK”, the “soluble on expression in E. coli” value is given as “soluble”. Turning to “SLTLNDKYPFTDEDQAIINSYKAVVDGVSALIGEHCEIVLHSLENIEHSAICIANGHNTNRQVGSPITDLALRSLRNMQSESVSKPYFTRAKGSVLMKSVTIAIRNKTQRIIGLLCININLDVPVSQFLQCFMLTEHTNETSSVNFANSVEDLVAQTIEKTIEEVNADRAVANNTKNRQIVLSLYEKGIFDIKDAINLVAERLDISRHTVYLYIRQIKQEQE”, the “soluble on expression in E. coli” value was “soluble”.

For “SLTPDSTAGSLHIDCPTGLAGDMLLAALLDLGVPLEVIKAPLARLGLKDMVRLDVEETRSGGLRGRRLNVVGLEPDPPHRHWAEIRDRLQNSSLEPKLLQTVLAVFTALAEAEATVHAQTPESVHFHEVGAIDALVDVVGVCAAIHHLAPHRISCAPPPAGHGSVTTAHGLLPVPVPAVLELARAHQVPLRHDPSLPEGELTTPTGLALVSVLAERFTAPPLFTPSAIGIGLGHRRLDRPNLVRLCLGQGESATLDLEARWQPLVVQEAWIDDASAEDIAWLLDRLRQAGALDVACQSLLMKKGRAGVAVTALVSTEQAPQLRRTWFEAGPSIGLRERQQGRWLLPRRAGTLSTPWGVLTAKQVRRPDGHCTVKPEADALQRLSQASGCSVADLRAAAQAASFESEEPWTW”, the “soluble on expression in E. coli” value was “not soluble”.

With “SLTTTDADWKPVADALGRSGKLGDNNTAYRINLPRNDLHITSYGVDIKPGLSLGGYAAFARYDNNETLLMGDLVITEEELPKVTDALQAHGIAQTALHKHLLQQDPPVWWTHIHGMGDAARLAQGLKAALDATTIGPPTPPPARQPPVDIDVAGVDQALGRKGTQDGGLMKYSIPRKDTIIEDGHVLPAVSLNLTTVINFQPVGRGRAAINGDFILIAPEVQEVIRAMRAGNITIVELHNHGLTEEPRLFYMHYWAVDDAVTLARALRPAMDATNLQS”, the “soluble on expression in E. coli” value is listed as “not soluble”. In the case of “SLVGYSAVSQPSPASFLLGPTLPPAPSIAFRLWRPYSMTARITSVEALPYRLPLTSKLAWGAHSALSAAEHVLVRVTLSDGSVGVAEATPRPTIYGETPGSVTAILQHLEPALLGLDIADEAALNRVRGSVAGNHTARGALDMALWEARAASRGQSLFDTLLGPHERVRVSFILGIAPPAEMLAEAERVVAAGVRCLKVKVGRHAAQDLQVIAELRRRYGDDVQLYADSNETLTLEQAPDVLAAMREAGLMYVEEPLPARDLRARAALHAAGVLPIVADDSCFTPADLERELDFDTFDVLNVKTARNGFTDGLQMLRRAAEHGKRGMVGSQASTGLGTLHAALLSTQAEVTEPCELSFVLKLGDDLLNRPIEFQDGWLNVPELREHRLDEDKLARYRI”, the “soluble on expression in E. coli” value is “soluble”. To “SLVTRVTLAPGVRVMVAPYPPFLLPLQGRLNCLYMRLRSPVVVPPGDSFSIELKVPFDIAVIASSKGRHTLIDFFPPGGVVPKMAVYGSNVEGLLCRFWRDEWRGPAASARLTIVNNADVQATVSRVVLPRRGLSMFYNPVTGGIAASPIRMSVRDIDSADVWLEEAEPGEGFIEVPLVERDRRLFEALGPLVPGRIAMIWGI” belongs “not soluble”; to “SMIPEVQKPLHEQLWYHGAIPRAEVAELLVHSGDFLVRESQGKQEYVLSVLWDGLPRHFIIQSLDNLYRLEGEGFPSIPLLIDHLLSTQQPLTKKSGVVLHRAVPKDKWVLNHEDLVLGEQIGRGNFGEVFSGRLRADNTLVAVKSCRETLPPDLKAKFLQEARILKQYSHPNIVRLIGVCTQKQPIYIVMELVQGGDFLTFLRTEGARLRVKTLLQMVGDAAAGMEYLESKCCIHRDLAARNCLVTEKNVLKISDFGMSREEADGVYAASGGLRQVPVKWTAPEALNYGRYSSESDVWSFGILLWETFSLGASPYPNLSNQQTREFVEKGGRLPCPELCPDAVFRLMEQCWAYEPGQRPSFSTIYQELQSIRKRHR”, “soluble”. With “SMITIKFDLNRYSCSWGAGGAFGGNRGLRPIPPEKGIFPLDHLHECDAEKKEYLGCLKSSAHKSEQCRHLSKKYLQCRMAKNLMAKQDMAELGFSGVKELDSTEDKNTESIEH” the entry was “soluble”; with “SMPAYACQRPSPLTHHNTLLSEALETLAEAAGFEANEGRLLSFSRAASVLKSLPCPVASLSQLHGLPYFGEHSTRVIQELLEHGTCEEVKQVRCSERYQTMKLFTQVFGVGVKTANRWYQEGLRTLDELREQPQRLTQQQKAGLQYYQDLSTPVRRADAEALQQLIEAAVRQTLPGATVTLTGGFRRGKLQGHDVDFLITHPEEGQEVGLLPKVMSCLQSQGLVLYHQYHRSHLADSAHNLRQRSSTMDVFERSFCILGLPQPQQAALAGALPPCPTWKAVRVDLVVTPSSQFPFALLGWTGSQFFERELRRFSRQEKGLWLNSHGLFDPEQKRVFHATSEEDVFRLLGLKYLPPEQRNA”, “soluble”. To “SNAMKDVLAEYASRIVSAEEAVKHIKNGERVALSHAAGVPQSCVDALVQQADLFQNVEIYHMLCLGEGKYMAPEMAPHFRHITNFVGGNSRKAVEENRADFIPVFFYEVPSMIRKDILHIDVAIVQLSMPDENGYCSFGVSCDYSKPAAESAHLVIGEINRQMPYVHGDNLIHISKLDYIVMADYPIYSLAKPKIGEVEEAIGRNCAELIEDGATLQLGIGAIPDAALLFLKDKKDLGIHTEMFSDGVVELVRSGVITGKKKTLHPGKMVATFLMGSEDVYHFIDKNPDVELYPVDYVNDPRVIAQNDNMVSINSCIEIDLMGQVVSECIGSKQFSGTGGQVDYVRGAAWSKNGKSIMAIPSTAKNGTASRIVPIIAEGAAVTTLRNEVDYVVTEYGIAQLKGKSLRQRAEALIAIAHPDFREELTKHLRKRFG” belongs “soluble”; to “SNAMLHYVHVGNKKSPNTLLFVHGSGCNLKIFGELEKYLEDYNCILLDLKGHGESKGQCPSTVYGYIDNVANFITNSEVTKHQKNITLIGYSMGGAIVLGVALKKLPNVRKVVSLSGGARFDKLDKDFMEKIYHNQLDNNYLLECIGGIDNPLSEKYFETLEKDPDIMINDLIACKLIDLVDNLKNIDIPVKAIVAKDELLTLVEYSEIIKKEVENSELKIFETGKHFLLVVNAKGVAEEIKNFI”, “soluble”; to “SNAMQVITSVKEAKQIVKDWKSHQLSIGYVPTMGFLHDGHLSLVKHAKTQDKVIVSIFVNPMQFGPNEDFSSYPRDLERDIKMCQDNGVDMVFIPDATQMYLKNFSTYVDMNTITDKLCGAKRPGHFRGVCTVLTKFFNILNPDIVYMGQKDAQQCVVVRHMVDDLNFDLKIQICPIIREEDGLAKSSRNVYLSKEERKASLAISQSIFLAEKLVREGEKNTSKIIQAMKDILEKEKLIKIDYIELVDFNTMENIENITDNVLGAVAAFVGKTRLIDNFLVQGLK”, “soluble”. In the case of “SNAMSDSDAMTDPNAVSYSNAIVVLCTAPDEASAQNLAAQVLGEKLAACVTLLPGATSLYYWEGKLEQEYEVQLLFKSNTDHQQALLTYIKQHHPYQTPELLVLPVRDGDKDYLSWLNASLL”, the “soluble on expression in E. coli” value is listed as “soluble”. As to “SNAMSELSYRRILLKLSGEALMGDGDYGIDPKVINRLAHEVIEAQQAGAQVALVIGGGNIFRGAGLAASGMDRVTGDHMGMLATVINALAMQDALEKLGAKVRVMSAIKINDVCEDFIRRRAIRHLEKGRIAIFAAGTGNPFFTTDSGAALRAIEIGADLLLKATKVDGVYDKDPKKHSDAVRYDSLTYDEVIMQGLEVMDTAAFALARDSDLPLRIFGMSEPGVLLRILHGAQIGTLVQGRS”, the “soluble on expression in E. coli” value is given as “soluble”. For “SNGRADFREPNAQVSRPIPDIGGGYIPTEEEWRLFAECHEECFWFRSVPLAATSMLITQGLISKGILSSHPKYGSIPKLIFACIVGYFAGKLSYVKTCQEKFKKLENSPLGEALRSGELRRSLPPGHYTQKPKYDSNVSGQSSFGTSPAADNIEKETLPRYEPIPFSASMNESTPTGITDHIAQGPDPNLEDSPKRKSVTYEELRNKNRESYGVTLSHKTDPSVRPMQERGPQKEVKVNKYGDTWDE”, the “soluble on expression in E. coli” value is “soluble”. As to “SNRKKLQKLTDTLTKNCKHFNKFEVNCLIKLFYDLVGGVERQGLVVGLDRNAFRNILHVTFGMTDDMIMDRVFRGFDKDNDGCVNVLEWIHGLSLFLRGSLEEKMKYCFEVFDLNGDGFISKEEMFHMLKNSLLKQPSEEDPDEGIKDLVEITLKKMDHDHDGKLSFADYELAVREETLLLEAFGPCLPDPKSQMEFEAQVFKDPNEFNDM”, the “soluble on expression in E. coli” value is given as “soluble”. For the sequence “SPEIMKDLSINFGKALDTCKKELDLPDSINEDFYKFWKEDYEITNRLTGCAIKCLSEKLEMVDADGKLHHGNAREFAMKHGADDAMAKQLVDLIHGCEKSIPPNDDRCMEVLSIAMCFKKEIHNLKWAPNMEVVVGEVLAEV”, the “soluble on expression in E. coli” value is listed as “soluble”.
